From US9320812
Values belong to the binder of their own block, whether it stands above or below them.

How the values were obtained:
human ephrin-A4 [1] = molecular target: T1, human ephrin-A4 (human, UniProt P52798); assay: SPR
T1 chain: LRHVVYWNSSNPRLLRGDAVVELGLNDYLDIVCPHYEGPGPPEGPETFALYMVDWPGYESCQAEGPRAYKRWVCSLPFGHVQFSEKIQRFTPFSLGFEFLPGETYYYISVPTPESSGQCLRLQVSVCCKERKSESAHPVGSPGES

human ephrin-A4 [2] = molecular target: T1, human ephrin-A4; assay: FACS

Kd (human ephrin-A4 [1]): 1.1 nM
B1: SC4.47 (antibody, V domains shown)
VH: EVQLQQSGPELVKPGASVKISCTASGYTFTYFYMNWVKQSQGKSLEWVGQINPNNGGTAYNHKFRGKTTLTVDKSSNTAFMELRSLTSEDSAVYFCARWVGTHYFDYWGQGTTLTVSS
VL: DIVLTQSPASLPVSLGQRATISCRASQSVSSSSYTYIHWYQQKPGQPPKLLINFASNLESGVPARFSVSGSGTDFTLNIHPVEGEDTATYYCQHSWEIPPTFGGGTKLEIK

binding result (human ephrin-A4 [2]): no binding
B2: EphB4-Fc (protein)
chain: LEETLLNTKLETADLKWVTFPQVDGQWEELSGLDEEQHSVRTYEVCDVQRAPGQAHWLRTGWVPRRGAVHVYATLRFTMLECLSLPRAGRSCKETFTVFYYESDADTATALTPAWMENPYIKVDTVAAEHLTRKRPGAEATGKVNVKTLRLGPLSKAGFYLAFQDQGACMALLSLHLFYKKCAQLTVNLTRFPETVPRELVVPVAGSCVVDAVPAPGPSPSLYCREDGQWAEQPVTGCSCAPGFEAAEGNTKCRACAQGTFKPLSGEGSCQPCPANSHSNTIGSAVCQCRVGYFRARTDPRGAPCTTPPSAPRSVVSRLNGSSLHLEWSAPLESGGREDLTYALRCRECRPGGSCAPCGGDLTFDPGPRDLVEPWVVVRGLRPDFTYTFEVTALNGVSSLATGPVPFEPVNVTTDREVPPAVSDIRVTRSSPSSLSLAWAVPRAPSGAVLDYEVKYHEKGAEGPSSVRFLKTSENRAELRGLKRGASYLVQVRARSEAGYGPFGQEHHSQTQLDESEGWREQLA
